Common to all, as to assay: MST
Assay [1] concerns the target WT human β-cardiac 25-hep HMM (UniProt P12883).
Assay [2] has as its target R663H human β-cardiac 25-hep HMM (UniProt P12883).
Assay [3] addresses C0-C7 fragment of human cardiac myosin binding protein-C (MyBP-C) (human).
Assay [4] deals with R663H human β-cardiac short S1 (sS1) (human) (UniProt P12883).
Assay [5] deals with WT human β-cardiac short S1 (sS1) (human) (UniProt P12883).

For the substance “C0-C7 fragment of human cardiac myosin binding protein-C (MyBP-C) (domain or fragment)”, the Kd in assay [1] stood at 1.5 µM; in assay [2], 1.1 µM.
Substance “WT human β-cardiac 25-hep HMM (from UniProt P12883 1-1016; P08590 1-195) (complex)” showed a Kd in assay [3] of 1.1 µM.
On to “proximal S2 of human β-cardiac myosin (from UniProt P12883 1-1935) (domain or fragment)”, for which the Kd in assay [4] was determined as 58 µM; in assay [5] it was 62 µM.

Usually Kd stands for the concentration at which binding is half-saturated. Read a high Kd as lower affinity.

Values taken from article PMC7124958.
